This is an account of results in the supplement of paper PMC10567573.

The series in a line: protein stability index of a GFP-peptide fusion (GPS, HEK-293T) (PSI 1-6); higher = more stable. To be noted: c terminus: a fixed tail appended.

± gives the standard deviation.
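Also: 24-mer peptide tiles fused after GFP, lentivirally expressed, FACS-sorted into six equal bins by GFP/DsRed ratio, decoded by Illumina sequencing, PSI is the read-weighted mean bin number.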

In turn, RLLKTLETSRSHDLEAVVPQNGSE [ATP23] yielded a protein stability index (treatment: DMSO) of 4 ± 0.23 and a protein stability index (treatment: MLN4924 1 uM, 8 h) of 4.09 ± 0.19.
For RLLSHDQVAMPYQWEYPYLLSILP [JAGN1], in that order: 2.15 ± 0.19 and 1.99 ± 0.16.
Taken in the same sequence, the figures for RLTSQDWERVHLIVAGGYDERVLE [ALG2] were 3.06 ± 0.28 and 3.21 ± 0.27.
For RLVPGGQRPADVPEPGRAGYPAPR [HAGHL], in that order: 4.59 ± 0.13 and 4.68 ± 0.1.
Turning to RLWRLFQTLDVNRDGGLCVNDLAV [SLC25A25], the protein stability index (treatment: DMSO) stood at 2.56 ± 0.2 and the protein stability index (treatment: MLN4924 1 uM, 8 h) stood at 2.49 ± 0.17.
For RNLGSINTELQDVQRIMVANIEEV [SEC22B], the protein stability index stood at 4.1 ± 0.15 (treatment: DMSO) and 4.05 ± 0.044 (treatment: MLN4924 1 uM, 8 h).
Taken in the same sequence, the figures for RPKDTVMCYRVRWEEAAPGRAVEH [MYORG] were 2.85 ± 0.39 and 2.91 ± 0.35.
Regarding RPSRSGAQQLEEEGPMEEEEAQPM [EID1], the protein stability index came to 5.66 ± 0.25 (treatment: DMSO) and 5.53 ± 0.2 (treatment: MLN4924 1 uM, 8 h).
For RRNLEEDDYLHKDTGETSMLKRPV [STEAP1], the protein stability index turned out to be 4.69 ± 0.13 (treatment: DMSO) and 4.76 ± 0.19 (treatment: MLN4924 1 uM, 8 h).
For RRSFLNAHHRSGAQVFPESPESES [GNAS], in that order: 5.02 ± 0.25 and 5.03 ± 0.11.
For RRSVRKNHMYSCRFSRQCVVDKDK [HNF4A], in that order: 3.02 ± 0.24 and 3.2 ± 0.24.
Taken in the same sequence, the figures for RRTRGPVERAAAAAAAAAGGDAGH [C6orf223] were 4.91 ± 0.31 and 5.07 ± 0.17.
Regarding RSFVEKHRWPSNMYLKQLAEYRKY [RHOBTB3], the protein stability index was found to be 2.38 ± 0.24 (treatment: DMSO) and 2.62 ± 0.74 (treatment: MLN4924 1 uM, 8 h).
For RSLFSSVPSKPPMSLEPQNGTYAG [ANKRD40], in that order: 3.51 ± 0.19 and 4.29 ± 0.41.
For RSLGPRAPSLRRHVLIHNTLQQLQ [SERTAD3], in that order: 2.64 ± 0.25 and 3.05 ± 0.19.
With RSLLRLRATRAGAAEEPGVRGLLA [C2CD2L], the protein stability index is 3.17 ± 0.43 (treatment: DMSO) and 3.44 ± 0.18 (treatment: MLN4924 1 uM, 8 h).
Taken in the same sequence, the figures for RSQMQGPRTRARLGANEVLLVVGG [KLHL12] were 2.39 ± 0.39 and 2.62 ± 0.37.
Taken in the same sequence, the figures for RSSSRINIPERASGPEGNLNQIVT [FAM104B] were 4.28 ± 0.27 and 4.36 ± 0.2.
On to RTGLEKAAAGAVGLERRDWSPSPP [SPDEF], for which the protein stability index was 4.55 ± 0.2 (treatment: DMSO) and 4.49 ± 0.25 (treatment: MLN4924 1 uM, 8 h).
Taken in the same sequence, the figures for RTLRNFINDEMQAKGIPQRAPPKR [PCMTD1] were 4.06 ± 0.16 and 3.98 ± 0.36.
For RTSCSSRPCVPPSCHGYTLPGACN [KRT33B], in that order: 2.67 ± 0.3 and 2.56 ± 0.17.
For RTVKLIRYVSNWDFFIVGCEVIFC [PKD2L1], in that order: 2.79 ± 0.56 and 2.58 ± 0.47.
Regarding RVYPKCTWLTTPKSTWPRYSKPGL [TCF25], the protein stability index by setting is: (treatment: DMSO) 2.59 ± 0.23; (treatment: MLN4924 1 uM, 8 h) 2.46 ± 0.12.
Taken in the same sequence, the figures for RYAEHVAATQALPQDSGTAAWKGR [C22orf31] were 4.1 ± 0.17 and 4.14 ± 0.35.
For RYFIADLPHLQDSFVDKLLDLMPR [INTS4], in that order: 2.16 ± 0.29 and 2.27 ± 0.29.
Regarding RYSSDTTPLLNGSSQDRMFETMAI [GOSR1], the protein stability index (treatment: DMSO) is 3.29 ± 0.77 and the protein stability index (treatment: MLN4924 1 uM, 8 h) stood at 3.27 ± 0.24.
For SALPTGSPKRGTAPGDLSATEPAT [FBF1], in that order: 5.32 ± 0.36 and 5.32 ± 0.086.
Taken in the same sequence, the figures for SDPCGQLRPTLLLTSLHHFMHSRN [PNLIPRP1] were 2.3 ± 0.35 and 2.6 ± 0.24.
SDVDQLYLIIRTLGKLIPRHQSIF [CDKL4] yielded a protein stability index (treatment: DMSO) of 3 ± 1.2 and a protein stability index (treatment: MLN4924 1 uM, 8 h) of 2.67 ± 0.77.
Taken in the same sequence, the figures for SDVVEYAKEKLESFIKNSDSFDKF [PCMTD1] were 3.7 ± 0.17 and 4.16 ± 0.38.
Consider SDWFNFHGHMCIAFELLGKNTFEF [CLK3], for which the protein stability index reads like this: (treatment: DMSO) 3 ± 0.3; (treatment: MLN4924 1 uM, 8 h) 2.94 ± 0.31.
In the case of SEDEEEYESGYAFLPDLLIFQMVI [SMG5], the protein stability index was found to be 2.76 ± 0.62 (treatment: DMSO) and 2.59 ± 0.53 (treatment: MLN4924 1 uM, 8 h).
With SERCQRQLQSLCRGLGLGGRRLKS [FANCE], the protein stability index reads like this: (treatment: DMSO) 3.22 ± 0.36; (treatment: MLN4924 1 uM, 8 h) 3.49 ± 0.47.
SFHPLQYIGFYGKETTNTCILKCN [PDS5B]: the protein stability index runs as follows: (treatment: DMSO) 1.99 ± 0.44; (treatment: MLN4924 1 uM, 8 h) 2.27 ± 0.35.
As for SFPRNNISYLVLSMISMGLFSIAP [JAGN1], the protein stability index is, setting by setting: (treatment: DMSO) 3.32 ± 0.2; (treatment: MLN4924 1 uM, 8 h) 3.42 ± 0.42.
Turning to SGAVGARRFLLCLYLVGFLDLFGV [MFSD9], the protein stability index runs as follows: (treatment: DMSO) 2.99 ± 0.54; (treatment: MLN4924 1 uM, 8 h) 2.84 ± 0.37.
In the case of SGRFAGREWYYGNVTRHQAECALN [NCK2], the protein stability index came to 2.31 ± 0.16 (treatment: DMSO) and 2.47 ± 0.22 (treatment: MLN4924 1 uM, 8 h).
For SGSGNRLDGKKKGVEPSPSPIKPG [UFD1], in that order: 4.61 ± 0.29 and 4.72 ± 0.079.
Taken in the same sequence, the figures for SHFVFVIEVKTKGGSKYLIYRRYR [NCF4] were 2.81 ± 0.56 and 2.48 ± 0.33.
On to SHHLAVYNSPQFKKTMSTFHNLVS [FBXO39], for which the protein stability index reads like this: (treatment: DMSO) 2.25 ± 0.28; (treatment: MLN4924 1 uM, 8 h) 2.31 ± 0.1.
SHKERFDPSGKGKGKAGRVDLVDE [TPPP]: the protein stability index by setting is: (treatment: DMSO) 5.04 ± 0.46; (treatment: MLN4924 1 uM, 8 h) 5.24 ± 0.2.
Turning to SHLLVVEPEKLYAMPDPAGPDGHL [ESRRA], the protein stability index (treatment: DMSO) turned out to be 3.68 ± 0.17 and the protein stability index (treatment: MLN4924 1 uM, 8 h) turned out to be 3.82 ± 0.27.
For SHYTSPSENMWNTGSTYNLSSGMA [CARM1], in that order: 2.84 ± 0.37 and 3.14 ± 0.21.
For SIAFRLRLASFDSSGKLICSRTTG [GMCL1], the protein stability index reads like this: (treatment: DMSO) 2.52 ± 0.4; (treatment: MLN4924 1 uM, 8 h) 2.09 ± 0.34.
For SICMRMEILGCPLPDPNNYYHRRN [CPXM2], in that order: 2.68 ± 0.27 and 2.46 ± 0.24.
With SIVAQVDQTGSKSSNLLDLKNPFF [CARM1], the protein stability index turned out to be 3.01 ± 0.15 (treatment: DMSO) and 3.43 ± 0.27 (treatment: MLN4924 1 uM, 8 h).
Taken in the same sequence, the figures for SKAQELGGAGREDPGLWSRLCRLA [ZSWIM9] were 2.96 ± 0.13 and 3.38 ± 0.33.
For SKIFTTLDPASLAWLTEEEPEPAE [DDIT3], in that order: 5.14 ± 0.54 and 5.11 ± 0.27.
Taken in the same sequence, the figures for SLDEFRQTWKLFSSHMNIDITDDC [PPEF2] were 2.49 ± 0.3 and 2.75 ± 0.21.
For the sequence SLEHTLRVAIAHYQDDPDLRFLLD [TSPAN10], the protein stability index was determined as 2.69 ± 0.16 (treatment: DMSO) and 2.98 ± 0.14 (treatment: MLN4924 1 uM, 8 h).
For SLGKQKVFIIRKSLLDELMEVQHF [SOAT2], in that order: 2.58 ± 0.52 and 2.56 ± 0.73.
For SLLGLLSFPRNNISYLVLSMISMG [JAGN1], in that order: 3.11 ± 0.33 and 3.01 ± 0.71.
For SLLVTELGSSRTPETVRMVLSNME [IMPA1], in that order: 3.15 ± 0.39 and 3.4 ± 0.23.
Consider SLPPPAGLNSSWVELPMNSSNGND [BNIP3L], for which the protein stability index runs as follows: (treatment: DMSO) 4.94 ± 0.26; (treatment: MLN4924 1 uM, 8 h) 4.88 ± 0.29.
Taken in the same sequence, the figures for SLQQQHQADLELIESAHRSRIKVL [FBF1] were 3.53 ± 0.074 and 3.47 ± 0.31.
Turning to SLSTSSSSSPPGTPSPADAKAPPT [CEBPB], the protein stability index (treatment: DMSO) was found to be 5.42 ± 0.15 and the protein stability index (treatment: MLN4924 1 uM, 8 h) amounted to 5.34 ± 0.19.
With SLVTVGKHLTARVLCLIVLPLALY [POMT2], the protein stability index came to 2.63 ± 0.58 (treatment: DMSO) and 2.58 ± 0.33 (treatment: MLN4924 1 uM, 8 h).
In the case of SMIQEQFKKGKNPTGLLALQQIAD [ADD1], the protein stability index by setting is: (treatment: DMSO) 3.08 ± 0.18; (treatment: MLN4924 1 uM, 8 h) 3.17 ± 0.32.
As for SMQAVLDYLYTKQLSPNLDLDPLE [RHOBTB1], the protein stability index was 2.47 ± 0.37 (treatment: DMSO) and 2.19 ± 0.47 (treatment: MLN4924 1 uM, 8 h).
On to SNASEDTRRLRLAHVGMELQLKQE [SCARA5], for which the protein stability index is, setting by setting: (treatment: DMSO) 4.29 ± 0.33; (treatment: MLN4924 1 uM, 8 h) 4.4 ± 0.29.
Consider SNEFKESALTLACYKGHLEMVRFL [ANKRD17], for which the protein stability index by setting is: (treatment: DMSO) 2.21 ± 0.18; (treatment: MLN4924 1 uM, 8 h) 2.4 ± 0.34.
Regarding SNFPRQYFALRKILKQLIADVTLD [TRIM39], the protein stability index by setting is: (treatment: DMSO) 2.54 ± 0.58; (treatment: MLN4924 1 uM, 8 h) 2.19 ± 0.53.
Regarding SNSSQDSLHKGAKRKGIKSSIGRL [PPFIA4], the protein stability index reads like this: (treatment: DMSO) 4.17 ± 0.22; (treatment: MLN4924 1 uM, 8 h) 4.22 ± 0.16.
For SNWFVWVTQMNHIPMHIDHDRNMD [FADS1], in that order: 2.09 ± 0.45 and 2.19 ± 0.13.
As to SPALQVMGPAQEAPVAEAWIPQAG [ZNF449], the protein stability index reads like this: (treatment: DMSO) 4.6 ± 0.086; (treatment: MLN4924 1 uM, 8 h) 4.65 ± 0.27.
For SPSFQLKAAALPPFPLGASAQNGL [PLAGL1], in that order: 3.41 ± 0.32 and 3.52 ± 0.4.
Consider SPSPPVEVKIEEPVSMEMDNHMSD [INTS3], for which the protein stability index runs as follows: (treatment: DMSO) 5.59 ± 0.19; (treatment: MLN4924 1 uM, 8 h) 5.52 ± 0.17.
SQAIDLLYWRDIKQTGIVFGSFLL [RTN1]: the protein stability index is, setting by setting: (treatment: DMSO) 3.03 ± 0.81; (treatment: MLN4924 1 uM, 8 h) 3.01 ± 0.47.
Taken in the same sequence, the figures for SQAPDGRRKSEAGSGAASSSGEDK [CDC25B] were 5.65 ± 0.18 and 5.58 ± 0.35.
Taken in the same sequence, the figures for SQFLKHQQTHNIEKAHECTDCGKA [ZNF649] were 4.88 ± 0.26 and 4.985 ± 0.041.
As to SQFLKLKTSVEKANAQIQILTRSW [CD207], the protein stability index amounted to 2.19 ± 0.59 (treatment: DMSO) and 2.09 ± 0.29 (treatment: MLN4924 1 uM, 8 h).
SRLLGSASPSSSVRLGSFRSPRAG [PRPH]: the protein stability index by setting is: (treatment: DMSO) 4.08 ± 0.19; (treatment: MLN4924 1 uM, 8 h) 3.96 ± 0.18.
